This note sets out measurements from US20210261648A1 (published 2021).

The target in assay [1] is T1, FcγRIIb extracellular domain with C-terminal His tag (human, UniProt P31994 43-217).
T1 construct: extracellular domain; also called FcgRIIb
T1 sequence (looked up): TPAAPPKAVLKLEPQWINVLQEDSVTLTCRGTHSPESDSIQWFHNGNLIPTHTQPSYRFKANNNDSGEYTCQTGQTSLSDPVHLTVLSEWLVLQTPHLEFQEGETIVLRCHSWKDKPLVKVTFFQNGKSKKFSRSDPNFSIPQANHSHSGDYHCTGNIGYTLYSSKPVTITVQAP
Put plainly: SPR, captured antibody, FcgR analyte. For orientation: SPR reads the build-up and loss of mass on a sensor chip optically.
Procedure: (§1) Relative binding activities were calculated for the results of analyzing interactions with the respective FcγRs according to the following method.

Assay [2] has as its target T2, FcγRIa extracellular domain with C-terminal His tag (human, UniProt P12314 16-292).
T2 construct: also called FcgRIa
The assay is described as follows: SPR, captured antibody, FcgR analyte.
Procedure: as §1

T2 sequence (P12314 16-292): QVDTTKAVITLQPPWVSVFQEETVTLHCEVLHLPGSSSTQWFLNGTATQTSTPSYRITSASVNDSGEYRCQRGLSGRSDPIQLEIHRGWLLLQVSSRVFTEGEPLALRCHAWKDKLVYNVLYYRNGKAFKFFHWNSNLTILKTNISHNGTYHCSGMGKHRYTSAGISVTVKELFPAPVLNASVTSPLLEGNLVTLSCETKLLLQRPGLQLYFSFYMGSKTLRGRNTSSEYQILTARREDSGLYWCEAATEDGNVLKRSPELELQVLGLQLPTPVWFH

B1: IL6R-BP086/IL6R-L (antibody, human IgG1, kappa)
heavy: QVQLQESGPGLVKPSETLSLTCAVSGHSISHDHAWSWVRQPPGEGLEWIGFISYSGITNYNPSLQGRVTISRDNSKNTLYLQMNSLRAEDTAVYYCARSLARTTAMDYWGEGTLVTVSSASTKGPSVFPLAPSSKSTSGGTAALGCLVKDYFPEPVTVSWNSGALTSGVHTFPAVLQSSGLYSLSSVVTVPSSSLGTQTYICNVNHKPSNTKVDKKVEPKSCDKTHTCPPCPAPELLGGDSVFLFPPKPKDTLMISRTPEVTCVVVDVSHEDPEVKFNWYVDGVEVHNAKTKPREEQYNSTYRVVSVLTVLHQDWLNGKEYKCKVSNAALPKPIEKTISKAKGQPREPQVYTLPPSRDELTKNQVSLTCLVKGFYPSDIAVEWESNGQPENNYKTTPPVLDSDGSFFLYSKLTVDKSRWQQGNVFSCSVMHEALHNHYTQESLSLSP
light: not shown
As to B1, the figures for the relative binding activity in assay [1] and in assay [2] were 137 relative (IL6R-BF648/IL6R-L = 100) and 72 relative (IL6R-BF648/IL6R-L = 100), respectively.

B2: IL6R-BP129/IL6R-L (antibody, human IgG1, kappa)
heavy: QVQLQESGPGLVKPSETLSLTCAVSGHSISHDHAWSWVRQPPGEGLEWIGFISYSGITNYNPSLQGRVTISRDNSKNTLYLQMNSLRAEDTAVYYCARSLARTTAMDYWGEGTLVTVSSASTKGPSVFPLAPSSKSTSGGTAALGCLVKDYFPEPVTVSWNSGALTSGVHTFPAVLQSSGLYSLSSVVTVPSSSLGTQTYICNVNHKPSNTKVDKKVEPKSCDKTHTCPPCPAPDLLGGDSVFLFPPKPKDTLMISRTPEVTCVVVDVSHEDPEVKFNWYVDGVEVHNAKTKPREEQDNSTYRVVSVLTVLHQDWLNGKEYKCKVSNKALPKPIEKTISKAKGQPREPQVYTLPPSRDELTKNQVSLTCLVKGFYPSDIAVEWESNGQPENNYKTTPPVLDSDGSFFLYSKLTVDKSRWQQGNVFSCSVMHEALHNHYTQESLSLSP
light: not shown
Regarding B2, the relative binding activity in assay [1] was 138 relative (IL6R-BF648/IL6R-L = 100); in assay [2], 68 relative (IL6R-BF648/IL6R-L = 100).

B3: IL6R-BP133/IL6R-L (antibody, human IgG1, kappa)
heavy: QVQLQESGPGLVKPSETLSLTCAVSGHSISHDHAWSWVRQPPGEGLEWIGFISYSGITNYNPSLQGRVTISRDNSKNTLYLQMNSLRAEDTAVYYCARSLARTTAMDYWGEGTLVTVSSASTKGPSVFPLAPSSKSTSGGTAALGCLVKDYFPEPVTVSWNSGALTSGVHTFPAVLQSSGLYSLSSVVTVPSSSLGTQTYICNVNHKPSNTKVDKKVEPKSCDKTHTCPPCPAPDYLGGDSVFLFPPKPKDTLMISRTPEVTCVVVDVSHEDPEVKFNWYVDGVEVHNAKTKPREEQYNSTYRVVSVLTVLHQDWLNGKEYKCKVSNKALPKPIEKTISKAKGQPREPQVYTLPPSRDELTKNQVSLTCLVKGFYPSDIAVEWESNGQPENNYKTTPPVLDSDGSFFLYSKLTVDKSRWQQGNVFSCSVMHEALHNHYTQESLSLSP
light: not shown
For the molecule B3, the relative binding activity in assay [1] was 137 relative (IL6R-BF648/IL6R-L = 100); in assay [2], 41 relative (IL6R-BF648/IL6R-L = 100).

B4: IL6R-BP144/IL6R-L (antibody, human IgG1, kappa)
heavy: QVQLQESGPGLVKPSETLSLTCAVSGHSISHDHAWSWVRQPPGEGLEWIGFISYSGITNYNPSLQGRVTISRDNSKNTLYLQMNSLRAEDTAVYYCARSLARTTAMDYWGEGTLVTVSSASTKGPSVFPLAPSSKSTSGGTAALGCLVKDYFPEPVTVSWNSGALTSGVHTFPAVLQSSGLYSLSSVVTVPSSSLGTQTYICNVNHKPSNTKVDKKVEPKSCDKTHTCPPCPAPELLGDDSVFLFPPKPKDTLMISRTPEVTCVVVDVSHEDPEVKFNWYVDGVEVHNAKTKPREEQYNSTYRVVSVLTVLHQDWLNGKEYKCKVSNAALPAPIEKTISKAKGQPREPQVYTLPPSRDELTKNQVSLTCLVKGFYPSDIAVEWESNGQPENNYKTTPPVLDSDGSFFLYSKLTVDKSRWQQGNVFSCSVMHEALHNHYTQESLSLSP
light: not shown
In the case of B4, the relative binding activity in assay [1] was 121 relative (IL6R-BF648/IL6R-L = 100); in assay [2], 64 relative (IL6R-BF648/IL6R-L = 100).

B5: IL6R-BP176/IL6R-L (antibody, human IgG1, kappa)
heavy: QVQLQESGPGLVKPSETLSLTCAVSGHSISHDHAWSWVRQPPGEGLEWIGFISYSGITNYNPSLQGRVTISRDNSKNTLYLQMNSLRAEDTAVYYCARSLARTTAMDYWGEGTLVTVSSASTKGPSVFPLAPSSKSTSGGTAALGCLVKDYFPEPVTVSWNSGALTSGVHTFPAVLQSSGLYSLSSVVTVPSSSLGTQTYICNVNHKPSNTKVDKKVEPKSCDKTHTCPPCPAPDLLGGDSVFLFPPKPKDTLMISRTPEVTCVVVDVSHEDPEVKFNWYVDGVEVHNAKTKPREEQYNSTYRVVSVLTVLHQDWLNGKEYKCKVSNDALPKPIEKTISKAKGQPREPQVYTLPPSRDELTKNQVSLTCLVKGFYPSDIAVEWESNGQPENNYKTTPPVLDSDGSFFLYSKLTVDKSRWQQGNVFSCSVMHEALHNHYTQESLSLSP
light: not shown
In the case of B5, the results for the relative binding activity in assay [1] and in assay [2] were 147 relative (IL6R-BF648/IL6R-L = 100) and 102 relative (IL6R-BF648/IL6R-L = 100), respectively.

B6: IL6R-BP143/IL6R-L (antibody, human IgG1, kappa)
heavy: QVQLQESGPGLVKPSETLSLTCAVSGHSISHDHAWSWVRQPPGEGLEWIGFISYSGITNYNPSLQGRVTISRDNSKNTLYLQMNSLRAEDTAVYYCARSLARTTAMDYWGEGTLVTVSSASTKGPSVFPLAPSSKSTSGGTAALGCLVKDYFPEPVTVSWNSGALTSGVHTFPAVLQSSGLYSLSSVVTVPSSSLGTQTYICNVNHKPSNTKVDKKVEPKSCDKTHTCPPCPAPEYLGGDSVFLFPPKPKDTLMISRTPEVTCVVVDVSHEDPEVKFNWYVDGVEVHNAKTKPREEQYNSTYRVVSVLTVLHQDWLNGKEYKCKVSNAALPAPIEKTISKAKGQPREPQVYTLPPSRDELTKNQVSLTCLVKGFYPSDIAVEWESNGQPENNYKTTPPVLDSDGSFFLYSKLTVDKSRWQQGNVFSCSVMHEALHNHYTQESLSLSP
light: not shown
On to B6, for which the relative binding activity in assay [1] is 133 relative (IL6R-BF648/IL6R-L = 100); in assay [2], 86 relative (IL6R-BF648/IL6R-L = 100).

B7: IL6R-BP182/IL6R-L (antibody, human IgG1, kappa)
heavy: QVQLQESGPGLVKPSETLSLTCAVSGHSISHDHAWSWVRQPPGEGLEWIGFISYSGITNYNPSLQGRVTISRDNSKNTLYLQMNSLRAEDTAVYYCARSLARTTAMDYWGEGTLVTVSSASTKGPSVFPLAPSSKSTSGGTAALGCLVKDYFPEPVTVSWNSGALTSGVHTFPAVLQSSGLYSLSSVVTVPSSSLGTQTYICNVNHKPSNTKVDKKVEPKSCDKTHTCPPCPAPDLLGGDSVFLFPPKPKDTLMISRTPEVTCVVVDVSHEDGEVKFNWYVDGVEVHNAKTKPREEQDNSTYRVVSVLTVLHQDWLNGKEYKCKVSNKALPKPIEKTISKAKGQPREPQVYTLPPSRDELTKNQVSLTCLVKGFYPSDIAVEWESNGQPENNYKTTPPVLDSDGSFFLYSKLTVDKSRWQQGNVFSCSVMHEALHNHYTQESLSLSP
light: not shown
With B7, the relative binding activity is 173 relative (IL6R-BF648/IL6R-L = 100) in assay [1] and 95 relative (IL6R-BF648/IL6R-L = 100) in assay [2].

B8: IL6R-BP132/IL6R-L (antibody, human IgG1, kappa)
heavy: QVQLQESGPGLVKPSETLSLTCAVSGHSISHDHAWSWVRQPPGEGLEWIGFISYSGITNYNPSLQGRVTISRDNSKNTLYLQMNSLRAEDTAVYYCARSLARTTAMDYWGEGTLVTVSSASTKGPSVFPLAPSSKSTSGGTAALGCLVKDYFPEPVTVSWNSGALTSGVHTFPAVLQSSGLYSLSSVVTVPSSSLGTQTYICNVNHKPSNTKVDKKVEPKSCDKTHTCPPCPAPDLLGGDSVFLFPPKPKDTLMISRTPEVTCVVVDVSHEDPEVKFNWYVDGVEVHNAKTKPREEQYNSTYRVVSVLTVLHQDWLNGKEYKCKVSNAALPKPIEKTISKAKGQPREPQVYTLPPSRDELTKNQVSLTCLVKGFYPSDIAVEWESNGQPENNYKTTPPVLDSDGSFFLYSKLTVDKSRWQQGNVFSCSVMHEALHNHYTQESLSLSP
light: not shown
Take B8: the values for the relative binding activity in assay [1] and in assay [2] were 150 relative (IL6R-BF648/IL6R-L = 100) and 91 relative (IL6R-BF648/IL6R-L = 100), respectively.
